Measurements from US20140245492.

Biological target: ubiquitin

B1: MBP-AtAIRP2 (fusion of maltose-binding protein and Arabidopsis thaliana ABA Insensitive Ring Protein 2) (protein)
chain: MRKSFKDSLKALEADIQFANTLASEYPEEYDGGYVQMRLSYSPAAHLFLFLLQWTDCHFAGALGLLRILIYKAYVDGKTTMSLHERKTSIREFYDVLFPSLLQLHGGITDVEERKQKEICDKRYRKKDRTDKGKMSEIDLEREEECGICLEIRNKVVLPTCNHSMCINCYRNWRARSQSCPFCRGSLKRVNSGDLWIYTCSAEIADLPAIYKENLKRLLIYIDKLPLVTSDPNLVPYAPLPR
  Self-Ubiquitination (in vitro, with UBA1, UBC8 and ubiquitin, 30° C. for 1 hour; Western blot using MBP- and ubiquitin-specific antibodies): the molecular weight of the AtAIRP2 protein was increased through Western blot using anti-MBP antibody, and the increase was induced due to ubiquitin
